Test results as given in US20220017622A1 (Pfizer, published 2022).
Changes are numbered by the printed parent chain. One block for each binder: values may come before it.

How the values were obtained:
human B7-H4 on cells [1] = target: T1, human B7-H4 on cells (human, UniProt Q7Z7D3 25-282); assay: cell-based or functional assay
T1 sequence (looked up): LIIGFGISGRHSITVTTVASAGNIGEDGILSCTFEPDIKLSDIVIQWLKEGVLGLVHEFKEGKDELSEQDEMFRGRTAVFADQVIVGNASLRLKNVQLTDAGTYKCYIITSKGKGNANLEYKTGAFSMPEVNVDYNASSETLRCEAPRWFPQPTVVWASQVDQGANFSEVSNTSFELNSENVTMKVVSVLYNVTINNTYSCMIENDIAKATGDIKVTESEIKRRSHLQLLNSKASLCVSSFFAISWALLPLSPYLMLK

human B7-H4 on cells [2] = target: T1, human B7-H4 on cells; assay: flow cytometry on MX-1 cells, 37 C
[3] = target: T2, human CD3 on primary human T cells (human, UniProt P07766 23-207; P04234 22-171); assay: flow cytometry on primary human T cells, 37 C
T2 construct: whole, on cells; On cells the whole CD3/TCR complex is present
T2 sequence (P07766 23-207, chain 1 of 2): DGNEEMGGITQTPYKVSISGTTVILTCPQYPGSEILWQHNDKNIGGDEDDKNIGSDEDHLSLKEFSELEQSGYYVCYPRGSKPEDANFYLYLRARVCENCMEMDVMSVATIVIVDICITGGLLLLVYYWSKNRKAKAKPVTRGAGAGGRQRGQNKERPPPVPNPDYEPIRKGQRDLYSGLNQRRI
T2 sequence (P04234 22-171, chain 2 of 2): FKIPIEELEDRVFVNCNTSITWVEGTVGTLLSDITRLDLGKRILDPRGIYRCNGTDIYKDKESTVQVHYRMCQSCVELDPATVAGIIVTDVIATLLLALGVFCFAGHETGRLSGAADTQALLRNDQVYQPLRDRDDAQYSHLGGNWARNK
Wherever T cell mediated tumor cell killing, OVCAR3-Luc is given: unit not given here.
Wherever T cell mediated tumor cell killing, T47D is given: unit not given here.

B1: B7-H4xCD3 bispecific antibody 1168 (bispecific antibody, IgG2)
heavy 1: EVQLLESGGGLVQPGGSLRLSCAASGFTFSSYAMSWVRQAPGKGLEWVSAISGGGGSTYYADSVKGRFTISRDNSKNTLYLQMNSLRAEDTAVYYCARDIQWYGESTLFDYWGQGTLVTVSSASTKGPSVFPLAPCSRSTSESTAALGCLVKDYFPEPVTVSWNSGALTSGVHTFPAVLQSSGLYSLSSVVTVPSSNFGTQTYTCNVDHKPSNTKVDKTVERKCEVECPECPAPPVAGPSVFLFPPKPKDTLMISRTPEVTCVVVAVSHEDPEVQFNWYVDGVEVHNAKTKPREEQFNSTFRVVSVLTVVHQDWLNGKEYKCKVSNKGLPSSIEKTISKTKGQPREPQVYTLPPSREEMTKNQVSLTCEVKGFYPSDIAVEWESNGQPENNYKTTPPMLDSDGSFFLYSKLTVDKSRWQQGNVFSCSVMHEALHNHYTQKSLSLSPG
light 1: DIQMTQSPSSLSASVGDRVTITCRASQSTRSWLAWYQQKPGKAPKLLIYKASSLESGVPSRFSGSGSGTDFTLTISSLQPEDFATYYCQQYGSYSRTFGQGTKVEIKRTVAAPSVFIFPPSDEQLKSGTASVVCLLNNFYPREAKVQWKVDNALQSGNSQESVTEQDSKDSTYSLSSTLTLSKADYEKHKVYACEVTHQGLSSPVTKSFNRGEC
heavy 2: EVQLVESGGGLVQPGGSLRLSCAASGFTFSDYYMTWVRQAPGKGLEWVAFIRNQARGYTSDHNPSVKGRFTISRDNAKNSLYLQMNSLRAEDTAVYYCARDRPSYYVLDYWGQGTTVTVSSASTKGPSVFPLAPCSRSTSESTAALGCLVKDYFPEPVTVSWNSGALTSGVHTFPAVLQSSGLYSLSSVVTVPSSNFGTQTYTCNVDHKPSNTKVDKTVERKCRVRCPRCPAPPVAGPSVFLFPPKPKDTLMISRTPEVTCVVVAVSHEDPEVQFNWYVDGVEVHNAKTKPREEQFNSTFRVVSVLTVVHQDWLNGKEYKCKVSNKGLPSSIEKTISKTKGQPREPQVYTLPPSREEMTKNQVSLTCLVKGFYPSDIAVEWESNGQPENNYKTTPPMLDSDGSFFLYSRLTVDKSRWQQGNVFSCSVMHEALHNHYTQKSLSLSPGK
light 2: DIQMTQSPSSLSASVGDRVTITCTSSQSLFNVRSQKNYLAWYQQKPGKAPKLLIYWASTRESGVPSRFSGSGSGTDFTLTISSLQPEDFATYYCKQSYDLFTFGGGTKVEIKRTVAAPSVFIFPPSDEQLKSGTASVVCLLNNFYPREAKVQWKVDNALQSGNSQESVTEQDSKDSTYSLSSTLTLSKADYEKHKVYACEVTHQGLSSPVTKSFNRGEC
notes: Chains 1-2: B7-H4 arm; chains 3-4: CD3 arm; IgG2
T cell mediated tumor cell killing EC50, HCC1954-Luc (human B7-H4 on cells [1]): 2160 nM
T cell mediated tumor cell killing, OVCAR3-Luc (human B7-H4 on cells [1]): 360
T cell mediated tumor cell killing, T47D (human B7-H4 on cells [1]): 1910
EC50 (human B7-H4 on cells [2]): 13.1 nM
EC50 [3]: 5.56 nM

B2: B7-H4xCD3 bispecific antibody 1133 (bispecific antibody, IgG2)
heavy 1: EVQLVESGGGLVQPGGSLRLSCAVSGGSFSGYYWNWIRQPPGKGLEWIGEINHSGSATYNPSLKSRVTISVDTAKNSLYLQMNSLRAEDTAVYYCARGLYNWNVDHWGQGTLVTVSSASTKGPSVFPLAPCSRSTSESTAALGCLVKDYFPEPVTVSWNSGALTSGVHTFPAVLQSSGLYSLSSVVTVPSSNFGTQTYTCNVDHKPSNTKVDKTVERKCEVECPECPAPPVAGPSVFLFPPKPKDTLMISRTPEVTCVVVAVSHEDPEVQFNWYVDGVEVHNAKTKPREEQFNSTFRVVSVLTVVHQDWLNGKEYKCKVSNKGLPSSIEKTISKTKGQPREPQVYTLPPSREEMTKNQVSLTCEVKGFYPSDIAVEWESNGQPENNYKTTPPMLDSDGSFFLYSKLTVDKSRWQQGNVFSCSVMHEALHNHYTQKSLSLSPG
light 1: DIQMTQSPSSLSASVGDRVTITCRASQGIRNDLGWYQQKPGKAPKRLIYAASSLQSGVPSRFSGSGSGTDFTLTISSLQPEDFATYYCLQHNAYPRTFGGGTKVEIKRTVAAPSVFIFPPSDEQLKSGTASVVCLLNNFYPREAKVQWKVDNALQSGNSQESVTEQDSKDSTYSLSSTLTLSKADYEKHKVYACEVTHQGLSSPVTKSFNRGEC
heavy 2: B1 heavy 2
light 2: B1 light 2
notes: as for B1
T cell mediated tumor cell killing EC50, HCC1954-Luc (human B7-H4 on cells [1]): 790 nM
T cell mediated tumor cell killing, T47D (human B7-H4 on cells [1]): 2810
EC50 (human B7-H4 on cells [2]): 1.47 nM
EC50 [3]: 5.73 nM

B6: B7-H4xCD3 bispecific antibody 1134 (bispecific antibody, IgG2)
heavy 1: B2 heavy 1 with N52D, S54Q, A57T, T58K, L78F
light 1: B2 light 1
heavy 2: B1 heavy 2
light 2: B1 light 2
notes: as for B1
T cell mediated tumor cell killing EC50, HCC1954-Luc (human B7-H4 on cells [1]): 1560 nM
T cell mediated tumor cell killing, OVCAR3-Luc (human B7-H4 on cells [1]): 540
T cell mediated tumor cell killing, T47D (human B7-H4 on cells [1]): 7330
EC50 (human B7-H4 on cells [2]): 17.6 nM
EC50 [3]: 6.9 nM

B7: B7-H4xCD3 bispecific antibody 1037 (bispecific antibody, IgG2)
heavy 1: B2 heavy 1 with I37V, P40A
light 1: B2 light 1 with N92S, A93S
heavy 2: B1 heavy 2
light 2: B1 light 2
notes: as for B1
T cell mediated tumor cell killing EC50, HCC1954-Luc (human B7-H4 on cells [1]): 620 nM
T cell mediated tumor cell killing, T47D (human B7-H4 on cells [1]): 1270
EC50 (human B7-H4 on cells [2]): 3.64 nM
EC50 [3]: 5.78 nM

The remaining binders from weak to strong by EC50 (human B7-H4 on cells [2]), led by results:

EC50 (human B7-H4 on cells [2]): 10 nM
EC50 [3]: 5.22 nM
B8: B7-H4xCD3 bispecific antibody 1169 (bispecific antibody, IgG2)
heavy 1: B1 heavy 1
light 1: B1 light 1 with Y36H
heavy 2: B1 heavy 2
light 2: B1 light 2
notes: as for B1
T cell mediated tumor cell killing EC50, HCC1954-Luc (human B7-H4 on cells [1]): 975 nM
T cell mediated tumor cell killing, OVCAR3-Luc (human B7-H4 on cells [1]): 190
T cell mediated tumor cell killing, T47D (human B7-H4 on cells [1]): 818

EC50 (human B7-H4 on cells [2]): 6.88 nM
EC50 [3]: 5.51 nM
B4: B7-H4xCD3 bispecific antibody 1170 (bispecific antibody, IgG2)
heavy 1: B1 heavy 1
light 1: B1 light 1 with Y36L
heavy 2: B1 heavy 2
light 2: B1 light 2
notes: as for B1
T cell mediated tumor cell killing EC50, HCC1954-Luc (human B7-H4 on cells [1]): 595 nM
T cell mediated tumor cell killing, OVCAR3-Luc (human B7-H4 on cells [1]): 130
T cell mediated tumor cell killing, T47D (human B7-H4 on cells [1]): 444

EC50 (human B7-H4 on cells [2]): 3.9 nM
EC50 [3]: 9.77 nM
B5: B7-H4xCD3 bispecific antibody 0999 (bispecific antibody, IgG2)
heavy 1: B1 heavy 1
light 1: B1 light 1 with M4L, S10T, T29I, Y36F, S56G, D70E, E81D, G92N
heavy 2: B1 heavy 2
light 2: B1 light 2
notes: as for B1
T cell mediated tumor cell killing EC50, HCC1954-Luc (human B7-H4 on cells [1]): 277 nM
T cell mediated tumor cell killing, OVCAR3-Luc (human B7-H4 on cells [1]): 90
T cell mediated tumor cell killing, T47D (human B7-H4 on cells [1]): 258

EC50 (human B7-H4 on cells [2]): 3.55 nM
EC50 [3]: 5.7 nM
B3: B7-H4xCD3 bispecific antibody 1136 (bispecific antibody, IgG2)
heavy 1: B2 heavy 1 with V24A, L78F
light 1: B2 light 1
heavy 2: B1 heavy 2
light 2: B1 light 2
notes: as for B1
T cell mediated tumor cell killing EC50, HCC1954-Luc (human B7-H4 on cells [1]): 500 nM
T cell mediated tumor cell killing, T47D (human B7-H4 on cells [1]): 3820
